Test results: PMC10661072

Tests used:
[1] = molecular target: recombinant core spidroin eADF4(C16) (Araneus diadematus (engineered mimic of its fibroin 4 core domain)); test: turbidity at 340 nm (fibrillization kinetics), global fit with AmyloFit; 10-40 uM eADF4(C16) in 150 mM NaF, 20 C, without and with 0.5% (w/w) pre-formed seeds; secondary nucleation model, nc set to 2 and n2 to 1; monomers to fibrils
[2] = molecular target: recombinant core spidroin eADF4(C16) (Araneus diadematus (engineered mimic of its fibroin 4 core domain)); test: turbidity at 340 nm (fibrillization kinetics), global fit with AmyloFit; 10-40 uM eADF4(C16) in 150 mM Na2SO4, 20 C, without and with 0.5% (w/w) pre-formed seeds; secondary nucleation model, nc set to 2 and n2 to 1; monomers to fibrils

recombinant core spidroin eADF4(C16)
k2 (rate constant of secondary nucleation) [1]: 0.598 M⁻¹ s⁻¹ | k+ (rate constant of fibril elongation) [1]: 7.26e+07 M⁻¹ s⁻¹ | k+k2 (elongation x secondary nucleation, combined rate parameter) [1]: 3.34e+07 M^−2 s^−2 | k+kn (elongation x primary nucleation, combined rate parameter) [1]: 420000 M^−2 s^−2 | kn (rate constant of primary nucleation) [1]: 0.00585 M⁻¹ s⁻¹ | k2 (rate constant of secondary nucleation) [2]: 7.08 M⁻¹ s⁻¹ | k+ (rate constant of fibril elongation) [2]: 2.85e+07 M⁻¹ s⁻¹ | k+k2 (elongation x secondary nucleation, combined rate parameter) [2]: 9.04e+07 M^−2 s^−2 | k+kn (elongation x primary nucleation, combined rate parameter) [2]: 1.35e+06 M^−2 s^−2 | kn (rate constant of primary nucleation) [2]: 1.42 M⁻¹ s⁻¹
